Reference: PMC11785096

Target: another dynein heavy chain (unidentified second DHC of dynein-X) (Lytechinus variegatus (endogenous in sperm))
Assay: cryo-EM structure

DNAHX (dynein heavy chain, XP_041462850) (natural protein)
percent of DNAHX particles in a two-headed dynein complex (open conformation): 27% | percent of DNAHX particles in phi particle dynein: 13%
